The values below come from PMC2684811 (Analytical biochemistry, 2009).

This test addresses acetylcholine-binding protein (AChBP) from Lymnaea stagnalis, carboxy-terminal hexahistidine-tagged (Lymnaea stagnalis, UniProt P58154 20-229). In words: SPR.

acetylcholine-binding protein (AChBP) from Lymnaea stagnalis, carboxy-terminal hexahistidine-tagged, sequence (P58154 20-229): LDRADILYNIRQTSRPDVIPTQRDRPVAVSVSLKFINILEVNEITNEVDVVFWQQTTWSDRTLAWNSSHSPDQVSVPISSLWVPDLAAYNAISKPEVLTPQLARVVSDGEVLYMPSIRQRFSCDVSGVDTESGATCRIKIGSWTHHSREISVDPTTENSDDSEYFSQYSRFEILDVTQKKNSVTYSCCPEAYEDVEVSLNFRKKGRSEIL

B1: α-bungarotoxin (natural protein)
chain: IVCHTTATSPISAVTCPPGENLCYRKMWCDAFCSSRGKVVELGCAATCPSKKPYEEVTCCSTDKCNPHPKQRPG
Consider B1, for which the binding result was “binds”.
